Earlier results, collected in patent publication US20240325609A1, “POLYPEPTIDE MONOLITHS” (Trustees of Tufts College, priority 2015, published 2024).

Conditions: room temperature for 14 days, not encapsulated

## HRP not encapsulated in silk: free horse radish peroxidase enzyme
  shelf stability of HRP: not shelf-stable
